From paper PMC10842004
Values joined by “and” are separate entries in the source; they are usually repeats but may differ in a detail not shown here. Equal values may be shown once.

Legend:
[1] = molecular target: single point mutations in RAD23A UBA1 or UBA2 (as tested with Pol κ); assay: co-IP
[2] = molecular target: single point mutations in RAD23A UBA1 or UBA2 (as tested with Rev1); assay: co-IP
[3] = molecular target: His Pol ι aa 1–419 (catalytic domain of Pol ι) (human); assay: MST
[4] = molecular target: FLAG-RAD23A lacking UBA1 (human) (UniProt P54725); assay: co-IP
[5] = molecular target: single point mutations in RAD23A UBA1 or UBA2 (as tested with Pol ι); assay: co-IP

HA-tagged Pol κ, sequence (Q9UBT6 whole entry): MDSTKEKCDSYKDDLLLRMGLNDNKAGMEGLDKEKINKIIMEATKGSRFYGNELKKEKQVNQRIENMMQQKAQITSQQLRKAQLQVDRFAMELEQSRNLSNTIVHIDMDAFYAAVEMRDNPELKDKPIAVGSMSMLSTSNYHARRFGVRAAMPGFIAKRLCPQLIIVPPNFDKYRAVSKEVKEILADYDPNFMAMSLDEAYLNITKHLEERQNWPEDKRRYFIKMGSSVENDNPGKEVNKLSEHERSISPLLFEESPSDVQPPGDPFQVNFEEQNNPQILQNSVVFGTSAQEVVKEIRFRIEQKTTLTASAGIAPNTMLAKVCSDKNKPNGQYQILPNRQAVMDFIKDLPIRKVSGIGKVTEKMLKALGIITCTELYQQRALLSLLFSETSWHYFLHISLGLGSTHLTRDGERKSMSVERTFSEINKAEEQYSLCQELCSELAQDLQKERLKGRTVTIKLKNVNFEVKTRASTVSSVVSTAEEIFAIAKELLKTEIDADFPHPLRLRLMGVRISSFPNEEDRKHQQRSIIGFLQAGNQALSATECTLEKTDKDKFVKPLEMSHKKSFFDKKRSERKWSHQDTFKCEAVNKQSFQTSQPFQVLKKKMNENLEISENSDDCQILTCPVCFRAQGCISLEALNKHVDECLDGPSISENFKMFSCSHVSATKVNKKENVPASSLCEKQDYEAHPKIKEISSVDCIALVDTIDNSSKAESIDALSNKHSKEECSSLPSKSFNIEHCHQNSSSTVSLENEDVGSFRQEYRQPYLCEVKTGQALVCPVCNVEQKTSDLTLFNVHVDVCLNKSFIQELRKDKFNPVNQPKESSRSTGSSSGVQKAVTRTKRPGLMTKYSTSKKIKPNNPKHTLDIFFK
HA-tagged REV1, sequence (Q9UBZ9 whole entry): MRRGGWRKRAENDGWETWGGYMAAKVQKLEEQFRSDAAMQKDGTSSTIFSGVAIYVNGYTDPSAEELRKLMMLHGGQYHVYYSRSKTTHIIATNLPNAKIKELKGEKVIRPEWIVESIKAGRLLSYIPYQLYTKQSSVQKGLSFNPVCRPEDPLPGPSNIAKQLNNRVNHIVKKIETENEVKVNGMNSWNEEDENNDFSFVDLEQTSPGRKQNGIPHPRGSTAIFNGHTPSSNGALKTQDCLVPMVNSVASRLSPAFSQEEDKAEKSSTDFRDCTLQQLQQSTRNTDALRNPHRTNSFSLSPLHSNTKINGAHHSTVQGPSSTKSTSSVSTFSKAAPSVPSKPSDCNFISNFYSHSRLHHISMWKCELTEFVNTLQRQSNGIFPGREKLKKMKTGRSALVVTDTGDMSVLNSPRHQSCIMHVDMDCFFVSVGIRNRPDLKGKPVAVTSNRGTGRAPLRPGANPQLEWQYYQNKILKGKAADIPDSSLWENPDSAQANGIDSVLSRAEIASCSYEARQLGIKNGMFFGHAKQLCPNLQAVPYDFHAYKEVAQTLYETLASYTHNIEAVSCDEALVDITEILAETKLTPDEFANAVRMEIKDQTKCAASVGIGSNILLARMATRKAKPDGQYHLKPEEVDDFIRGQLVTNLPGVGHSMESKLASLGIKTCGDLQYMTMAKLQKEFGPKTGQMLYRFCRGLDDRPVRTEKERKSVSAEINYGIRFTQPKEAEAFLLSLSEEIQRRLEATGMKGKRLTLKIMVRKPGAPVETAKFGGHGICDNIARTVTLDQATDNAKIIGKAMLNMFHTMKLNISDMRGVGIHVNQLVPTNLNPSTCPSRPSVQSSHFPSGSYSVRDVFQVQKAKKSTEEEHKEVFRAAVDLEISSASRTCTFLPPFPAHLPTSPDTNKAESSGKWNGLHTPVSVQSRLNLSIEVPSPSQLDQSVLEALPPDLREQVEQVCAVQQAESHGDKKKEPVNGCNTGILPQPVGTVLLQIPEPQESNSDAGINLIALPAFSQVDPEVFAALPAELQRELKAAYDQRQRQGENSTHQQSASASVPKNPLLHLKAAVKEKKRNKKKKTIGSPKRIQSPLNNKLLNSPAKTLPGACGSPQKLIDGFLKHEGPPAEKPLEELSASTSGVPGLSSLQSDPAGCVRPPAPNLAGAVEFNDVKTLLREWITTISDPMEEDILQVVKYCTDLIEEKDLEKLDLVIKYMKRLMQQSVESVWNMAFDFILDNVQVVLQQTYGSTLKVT

HA-tagged Pol κ (from UniProt Q9UBT6 1-870) (enzyme)
percent disruption of binding against WT RAD23A [1]: 40% and 60%

HA-tagged REV1 (from UniProt Q9UBZ9 1-1251) (enzyme)
percent disruption of binding against WT RAD23A [2]: 70 to 80%

RAD23A ΔUBL fragment (domain or fragment)
Kd [3]: 90 µM

WT HA-Pol ι (enzyme)
percent reduction of binding against WT RAD23A [4]: 75 to 85%
percent disruption of binding against WT RAD23A [5]: 40% and 60%
